T1: human TEM1 (endosialin/CD248) (human) (UniProt Q9HCU0)
T1 sequence (chain, biotinylated in the SPR assay of Table 6 (sites not stated)): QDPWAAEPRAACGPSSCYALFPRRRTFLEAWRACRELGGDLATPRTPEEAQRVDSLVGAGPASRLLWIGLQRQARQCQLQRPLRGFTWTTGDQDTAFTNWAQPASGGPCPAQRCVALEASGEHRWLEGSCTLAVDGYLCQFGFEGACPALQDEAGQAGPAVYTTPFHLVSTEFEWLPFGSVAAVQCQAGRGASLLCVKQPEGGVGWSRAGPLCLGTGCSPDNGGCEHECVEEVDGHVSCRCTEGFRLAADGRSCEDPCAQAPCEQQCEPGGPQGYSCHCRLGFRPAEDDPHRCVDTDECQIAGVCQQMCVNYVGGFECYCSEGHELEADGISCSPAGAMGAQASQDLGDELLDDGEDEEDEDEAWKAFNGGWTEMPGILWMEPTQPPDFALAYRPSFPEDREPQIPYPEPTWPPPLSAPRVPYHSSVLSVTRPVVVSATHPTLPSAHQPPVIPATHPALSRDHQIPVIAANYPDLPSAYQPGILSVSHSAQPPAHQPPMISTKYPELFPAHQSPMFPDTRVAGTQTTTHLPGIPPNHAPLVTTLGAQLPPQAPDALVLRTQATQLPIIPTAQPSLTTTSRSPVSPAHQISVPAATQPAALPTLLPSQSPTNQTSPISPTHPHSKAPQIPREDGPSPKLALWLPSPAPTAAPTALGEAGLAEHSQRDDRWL


Biological target: T1, human TEM1 (endosialin/CD248) (human)
Assay: SPR (BIAcore), biotin-hTEM1 captured on CAP chip, antibody 0-50 nM as analyte

Kd	koff	kon	Binder
0.015 nM	5.8e-05 s⁻¹	3.7e+06 M⁻¹ s⁻¹	1-55-2 (rabbit anti-hTEM1 mAb) (antibody, V domains shown) VH: QSVEESGGDLVKPEGSLTLTCTASGFSFSSSYWGCWVRQAPGKGPEWIACIYGGSSGTTYYPNWAKGRFSISKTSSTTVTLQMASLTAADTATYFCARVTNGGDWDFKLWGPGTLVTISS VL: ELVMTQTPASVEVAVGGTVTIKCQASQSINTYLAWYQQKPGQPPKLLIYRASTLASGVPSRFKGSGSGTEFTLTISDLECADAATYYCQQSVRVIDVDNTFGGGTEVVVK
0.046 nM	7.1e-05 s⁻¹	1.5e+06 M⁻¹ s⁻¹	xi1-55-2 (rabbit/human chimerized 1-55-2 mAb) (antibody, human IgG1, kappa, V domains shown) VH: QSVEESGGDLVKPEGSLTLTCTASGFSFSSSYWGCWVRQAPGKGPEWIACIYGGSSGTTYYPNWAKGRFSISKTSSTTVTLQMASLTAADTATYFCARVTNGGDWDFKLWGPGTLVTISS VL: ELVMTQTPASVEVAVGGTVTIKCQASQSINTYLAWYQQKPGQPPKLLIYRASTLASGVPSRFKGSGSGTEFTLTISDLECADAATYYCQQSVRVIDVDNTFGGGTEVVVKR

Reference: patent US20160369011A1
